Key:
Conditions in all cases: protein: recombinant;recombinant;recombinant; tags: C-terminal TEV-cleavable double-StrepTactin tag (cleaved);;; chain copies: 2;1;1; blunt (annealed; only one strand given)
[1] = target: Cep3 (wild type, core complex);Ctf13;Skp1delta (Saccharomyces cerevisiae;Saccharomyces …, UniProt P40969;P35203;P52286 1-608;1-478;1-194, ||del37-64); assay: EMSA; no lambda phosphatase; 1 uM protein, 0.1 uM DNA; EMSA: complex (final buffer 10 mM HEPES, 300 mM NaCl, 1 mM DTT) mixed with DNA, 200 units lambda phosphatase and 1 mM MnCl2, 30 C 30 min, 0.8% agarose gel in TBE; binding pH not stated
[2] = target: Cep3 deltaGal4;Ctf13;Skp1 (wild type) (Saccharomyces cerevisiae;Saccharomyces …, UniProt P40969;P35203;P52286 47-608;1-478;1-194, ||); assay: EMSA; lambda phosphatase, 1 mM MnCl2; 0.3-1 uM protein; EMSA: complex (final buffer 10 mM HEPES, 300 mM NaCl, 1 mM DTT) mixed with DNA, 200 units lambda phosphatase and 1 mM MnCl2, 30 C 30 min, 0.8% agarose gel in TBE; binding pH not stated
[3] = target: T1, Cep3 (wild type, core complex);Ctf13;Skp1 (wild type) (Saccharomyces cerevisiae;Saccharomyces …, UniProt P40969;P35203;P52286 1-608;1-478;1-194, ||); assay: EMSA; lambda phosphatase, 1 mM MnCl2; 0.3-1 uM protein, 0.1 uM DNA; EMSA: complex (final buffer 10 mM HEPES, 300 mM NaCl, 1 mM DTT) mixed with DNA, 200 units lambda phosphatase and 1 mM MnCl2, 30 C 30 min, 0.8% agarose gel in TBE; binding pH not stated
[4] = target: T1, Cep3 (wild type, core …); assay: competition; EMSA, competitor 0.4-1.2 uM vs 0.1 uM N2; EMSA: complex (final buffer 10 mM HEPES, 300 mM NaCl, 1 mM DTT) mixed with DNA, 200 units lambda phosphatase and 1 mM MnCl2, 30 C 30 min, 0.8% agarose gel in TBE; binding pH not stated
[5] = target: T1, Cep3 (wild type, core …); assay: competition; EMSA, competitor 0.4-1.2 uM vs 0.1 uM N2; same effect as CCG mutant; EMSA: complex (final buffer 10 mM HEPES, 300 mM NaCl, 1 mM DTT) mixed with DNA, 200 units lambda phosphatase and 1 mM MnCl2, 30 C 30 min, 0.8% agarose gel in TBE; binding pH not stated

T1 sequence (P40969 whole entry, chain 1 of 3): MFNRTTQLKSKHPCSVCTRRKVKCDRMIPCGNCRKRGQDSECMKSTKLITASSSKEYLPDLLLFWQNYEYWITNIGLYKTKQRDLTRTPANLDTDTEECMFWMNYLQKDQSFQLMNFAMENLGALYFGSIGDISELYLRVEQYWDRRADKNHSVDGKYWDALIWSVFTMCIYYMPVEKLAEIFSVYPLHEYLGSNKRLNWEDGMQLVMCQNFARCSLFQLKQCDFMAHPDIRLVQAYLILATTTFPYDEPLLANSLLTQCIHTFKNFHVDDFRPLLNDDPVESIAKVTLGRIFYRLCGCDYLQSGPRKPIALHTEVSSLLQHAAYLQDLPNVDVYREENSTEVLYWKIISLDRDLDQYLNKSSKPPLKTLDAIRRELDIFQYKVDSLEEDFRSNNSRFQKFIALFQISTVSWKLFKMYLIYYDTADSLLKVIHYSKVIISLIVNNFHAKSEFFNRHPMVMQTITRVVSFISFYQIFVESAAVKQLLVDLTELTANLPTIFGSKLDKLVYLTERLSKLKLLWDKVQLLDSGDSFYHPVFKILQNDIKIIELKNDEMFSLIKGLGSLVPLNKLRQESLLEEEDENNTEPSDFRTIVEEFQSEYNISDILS
T1 sequence (P35203 whole entry, chain 2 of 3): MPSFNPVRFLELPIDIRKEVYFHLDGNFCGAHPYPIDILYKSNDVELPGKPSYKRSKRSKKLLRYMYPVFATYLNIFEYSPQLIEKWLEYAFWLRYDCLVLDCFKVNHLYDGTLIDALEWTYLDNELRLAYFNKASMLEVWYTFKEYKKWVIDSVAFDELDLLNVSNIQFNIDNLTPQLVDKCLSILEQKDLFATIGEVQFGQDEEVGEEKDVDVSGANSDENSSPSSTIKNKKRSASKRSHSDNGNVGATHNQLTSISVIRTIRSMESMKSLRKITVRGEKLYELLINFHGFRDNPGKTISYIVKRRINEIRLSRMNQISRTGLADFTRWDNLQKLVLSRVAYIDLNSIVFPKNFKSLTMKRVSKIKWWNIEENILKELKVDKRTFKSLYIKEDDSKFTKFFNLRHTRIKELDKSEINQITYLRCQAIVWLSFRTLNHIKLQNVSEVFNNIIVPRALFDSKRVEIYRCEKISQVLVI
T1 sequence (P52286 whole entry, chain 3 of 3): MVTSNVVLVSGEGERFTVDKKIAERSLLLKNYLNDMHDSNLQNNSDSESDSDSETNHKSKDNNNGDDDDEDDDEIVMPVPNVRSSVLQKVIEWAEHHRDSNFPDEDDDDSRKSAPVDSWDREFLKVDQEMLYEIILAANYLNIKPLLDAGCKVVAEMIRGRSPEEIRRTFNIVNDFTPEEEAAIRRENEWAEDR
Cep3 (wild type, core complex);Ctf13;Skp1delta, sequence (P40969 whole entry, stated change not applied, chain 1 of 3, the tested form may be a part): as the sequence (P40969 whole entry, chain 1 of 3) above
Cep3 (wild type, core complex);Ctf13;Skp1delta, sequence (P35203 whole entry, stated change not applied, chain 2 of 3, the tested form may be a part): as the sequence (P35203 whole entry, chain 2 of 3) above
Cep3 (wild type, core complex);Ctf13;Skp1delta, sequence (P52286 other isoform, or with tags, fused parts or gaps ||del37-64 | mutant, chain 3 of 3): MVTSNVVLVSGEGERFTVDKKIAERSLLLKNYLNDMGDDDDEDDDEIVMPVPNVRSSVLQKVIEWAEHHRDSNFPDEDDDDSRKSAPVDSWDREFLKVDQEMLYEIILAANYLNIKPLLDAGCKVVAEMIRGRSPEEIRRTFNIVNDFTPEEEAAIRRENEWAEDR
Cep3 deltaGal4;Ctf13;Skp1 (wild type), sequence (P40969 47-608, stated change not applied, chain 1 of 3): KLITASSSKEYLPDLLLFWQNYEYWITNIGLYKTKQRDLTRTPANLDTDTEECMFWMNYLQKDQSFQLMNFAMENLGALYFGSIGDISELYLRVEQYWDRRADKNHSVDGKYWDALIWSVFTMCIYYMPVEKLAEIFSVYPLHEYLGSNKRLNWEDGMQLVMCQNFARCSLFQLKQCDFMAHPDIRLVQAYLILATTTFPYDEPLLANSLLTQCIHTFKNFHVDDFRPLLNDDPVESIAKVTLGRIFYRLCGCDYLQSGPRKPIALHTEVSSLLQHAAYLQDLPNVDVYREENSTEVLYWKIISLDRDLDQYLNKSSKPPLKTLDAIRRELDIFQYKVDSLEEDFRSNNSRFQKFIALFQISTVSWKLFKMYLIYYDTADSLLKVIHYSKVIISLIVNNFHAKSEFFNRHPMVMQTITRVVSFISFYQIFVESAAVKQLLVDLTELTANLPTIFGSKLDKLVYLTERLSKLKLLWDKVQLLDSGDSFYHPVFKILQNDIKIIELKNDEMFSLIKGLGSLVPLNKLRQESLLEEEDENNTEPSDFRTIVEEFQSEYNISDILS
Cep3 deltaGal4;Ctf13;Skp1 (wild type), sequence (P35203 whole entry, stated change not applied, chain 2 of 3, the tested form may be a part): as the sequence (P35203 whole entry, chain 2 of 3) above
Cep3 deltaGal4;Ctf13;Skp1 (wild type), sequence (P52286 whole entry, stated change not applied, chain 3 of 3, the tested form may be a part): as the sequence (P52286 whole entry, chain 3 of 3) above

B1: 56 bp WT CEN3 (dsDNA)
DNA 1: TATTAGTGTATTTGATTTCCGAAAGTTAAAAAAGAAATAGTAAGAAATATATATTT
DNA 2: AAATATATATTTCTTACTATTTCTTTTTTAACTTTCGGAAATCAAATACACTAATA
- binding result [1]: binds
- binding result [2]: no binding
- binding result [3]: binds

B2: 33 bp wild-type CEN3, unlabelled competitor (dsDNA)
DNA 1: AAATATTAGTGTATTTGATTTCCGAAAGTTAAA
DNA 2: TTTAACTTTCGGAAATCAAATACACTAATATTT
- binding result [4]: binds

B3: 33 bp CCG mutant CEN3 (dsDNA)
DNA 1: AAATATTAGTGTATTTGATTTGATAAAGTTAAA
DNA 2: TTTAACTTTATCAAATCAAATACACTAATATTT
- binding result [4]: no binding

B4: 33 bp double mutant CEN3 (dsDNA)
DNA 1: AAATATTAGAACATTTGATTTGATAAAGTTAAA
DNA 2: TTTAACTTTATCAAATCAAATGTTCTAATATTT
- binding result [5]: no binding
